In publication PMC11272940, “UNC-45 assisted myosin folding depends on a conserved FX3HY motif implicated in Freeman Sheldon Syndrome” (Nature Communications, 2024):

B2: Full length C. elegans UNC-45 (from E. coli) (natural protein, UniProt G5EG62 1-961, looked up)
chain: MVARVQTAEEIRDEGNAAVKDQDYIKADELYTEALQLTTDEDKALRPVLYRNRAMARLKRDDFEGAQSDCTKALEFDGADVKALFRRSLAREQLGNVGPAFQDAKEALRLSPNDKGIVEVLQRLVKANNDKIKQTTSLANKVTDMEKLAFRGEAKDTEQKMTALNNLLVLCRESESGATGVWNQGALVPFVLNLINDASENEEVTVTAIRILDETIKNSVRCMKFLAMHDPDGPKSVRFVCRLMCKKSTKDFVDATGILVQRVFNAMAKMDRQKEMKPDPEVAEANKIWIIRVLLELQEMLQDPKVGAVQRETCIDLFLKNLMHMDGGIPRGWSWKFVEERGLLALLDVASQIPELCEYPVSAETRQHVAICLQRLEEDMVFDTKRTIFKEKVDMFFNALISRCTNDDEGHKYRIKLSCFLITMLQGPVDIGINLITNDQLTPIMLEMAASQDHLMQGIAAELIVATVSKHERAINMLKVGIPVLRALYDSEDPTVKVRALVGLCKIGAAGGDDISKATMKEEAVISLAKTCKKFLLETEKYSVDIRRYACEGLSYLSLDADVKEWIVDDSLLLKALVLLAKKAGALCVYTLATIYANLSNAFEKPKVDEEMVKLAQFAKHHVPETHPKDTEEYVEKRVRALVEEGAVPACVAVSKTESKNALELIARSLLAFAEYEDLRGRIIAEGGTVLCLRLTKEASGEGKIKAGHAIAKLGAKADPMISFPGQRAYEVVKPLCDLLHPDVEGKANYDSLLTLTNLASVSDSIRGRILKEKAIPKIEEFWFMTDHEHLRAAAAELLLNLLFFEKFYEETVAPGTDRLKLWVLYSAEVEEERLSRASAAGFAILTEDENACARIMDEIKSWPEVFKDIAMHEDAETQRRGLMGIANIMHSSNKLCSEIVSSEVFRVLVAVTKLGTINQERAGSTEQAKRGLEAAEKFGLIKATDREIYERENQMSTIQE
notes: UNC-45 chaperone, C. elegans; The C-terminal Strep tag is stated for the peptide spot assay; also called wildtype UNC-45; purified UNC-45; source: E. coli, purified (HisTrap or StrepTrap, SEC); not shown: Strep, C-terminal, kept

How the values were obtained:
[1] = target: T1, C. elegans UNC-45 (co-expressed with the MHC-B motor domain in insect cells) (C. elegans, UniProt G5EG62 1-961); assay: tandem affinity co-purification + SEC; co-expressed in insect cells; HisTrap (myosin) then Strep-Tactin (UNC-45), then Superdex 200 in 20 mM HEPES pH 8.0, 150 mM NaCl; details: partners not purified
T1 construct: UNC-45 chaperone, C. elegans; also called UNC-45 WT; wildtype UNC-45; source: High Five insect cells, baculovirus, co-expressed with myosin; purified as a complex (HisTrap, Strep-Tactin, SEC); in cleared lysate in the solubility assay
T1 sequence: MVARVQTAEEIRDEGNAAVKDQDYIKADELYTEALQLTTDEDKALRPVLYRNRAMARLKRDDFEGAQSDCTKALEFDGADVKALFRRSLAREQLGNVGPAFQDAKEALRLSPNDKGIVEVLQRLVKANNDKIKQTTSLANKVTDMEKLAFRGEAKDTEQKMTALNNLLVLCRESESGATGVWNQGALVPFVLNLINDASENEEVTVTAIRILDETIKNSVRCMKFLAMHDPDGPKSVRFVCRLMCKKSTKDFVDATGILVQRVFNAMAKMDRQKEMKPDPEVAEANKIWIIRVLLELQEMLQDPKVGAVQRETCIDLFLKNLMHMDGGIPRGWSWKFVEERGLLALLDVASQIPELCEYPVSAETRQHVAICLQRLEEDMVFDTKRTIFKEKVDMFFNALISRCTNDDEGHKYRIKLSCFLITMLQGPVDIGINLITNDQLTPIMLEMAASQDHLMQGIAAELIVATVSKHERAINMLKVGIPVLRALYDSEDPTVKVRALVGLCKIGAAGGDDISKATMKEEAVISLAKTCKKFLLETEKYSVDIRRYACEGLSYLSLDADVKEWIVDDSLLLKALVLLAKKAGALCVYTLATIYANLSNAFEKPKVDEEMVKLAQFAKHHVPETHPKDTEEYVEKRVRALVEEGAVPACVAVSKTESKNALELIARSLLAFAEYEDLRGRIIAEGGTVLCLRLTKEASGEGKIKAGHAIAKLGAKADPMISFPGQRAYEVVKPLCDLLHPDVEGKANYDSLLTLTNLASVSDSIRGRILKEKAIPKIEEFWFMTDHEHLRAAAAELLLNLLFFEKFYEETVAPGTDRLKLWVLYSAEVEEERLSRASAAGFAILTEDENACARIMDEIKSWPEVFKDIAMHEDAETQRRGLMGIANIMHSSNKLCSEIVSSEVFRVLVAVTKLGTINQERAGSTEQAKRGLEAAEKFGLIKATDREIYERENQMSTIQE

[2] = target: B2; assay: cross-linking; XL-MS of the in vitro reconstituted UFD-2:UNC-45:myo^UF complex; 0.25 mM DSS, 20 mM HEPES pH 8.0, 150 mM NaCl, 25 °C, 30 min; details: both partners purified
[3] = target: T2, 547–588 myosin peptide (MHC-B) (C. elegans, UniProt P02566 547-588); assay: thermal shift assay; 1 μM UNC-45 or UNC-45 ΔUCS, 2 mM peptide, SYPRO Orange, 20 mM HEPES pH 8.0, 150 mM NaCl; triplicates; details: both partners purified
T2 construct: also called native peptide; identified myosin ligand; source: synthetic peptide
T2 peptide (looked up): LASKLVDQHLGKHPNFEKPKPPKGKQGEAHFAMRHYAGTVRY

[4] = target: T3, Kluyveromyces lactis SHE4, wildtype (Kluyveromyces lactis); assay: ITC; 25 °C, VP-ITC; 10 μM SHE4 in the cell, 90 μM (N475A: 107 μM) peptide in the syringe; 10 mM HEPES pH 8.0, 150 mM NaCl, 1 mM TCEP; single site model; details: both partners purified
T3 chain: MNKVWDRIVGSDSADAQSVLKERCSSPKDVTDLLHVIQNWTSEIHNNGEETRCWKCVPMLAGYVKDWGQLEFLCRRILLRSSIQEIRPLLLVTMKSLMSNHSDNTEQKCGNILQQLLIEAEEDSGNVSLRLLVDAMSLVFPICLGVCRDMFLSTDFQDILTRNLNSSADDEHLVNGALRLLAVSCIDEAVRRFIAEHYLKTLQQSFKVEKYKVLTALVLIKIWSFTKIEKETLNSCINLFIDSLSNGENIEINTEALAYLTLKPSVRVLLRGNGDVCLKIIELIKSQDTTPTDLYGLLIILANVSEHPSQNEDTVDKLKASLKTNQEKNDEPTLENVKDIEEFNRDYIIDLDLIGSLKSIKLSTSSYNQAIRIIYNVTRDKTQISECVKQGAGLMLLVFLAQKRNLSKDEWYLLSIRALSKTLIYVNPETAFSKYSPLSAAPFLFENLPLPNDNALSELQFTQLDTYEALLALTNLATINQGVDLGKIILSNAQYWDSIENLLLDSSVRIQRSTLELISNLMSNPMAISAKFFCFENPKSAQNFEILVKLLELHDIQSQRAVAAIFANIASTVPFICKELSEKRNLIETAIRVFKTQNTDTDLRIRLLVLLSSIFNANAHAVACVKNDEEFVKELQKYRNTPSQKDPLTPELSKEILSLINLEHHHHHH

B1: C. elegans myosin motor domain MHC-B (1-790), wildtype (domain or fragment, UniProt P02566 1-790, looked up)
chain: MEHEKDPGWQYLRRTREQVLEDQSKPYDSKKNVWIPDPEEGYLAGEITATKGDQVTIVTARGNEVTLKKELVQEMNPPKFEKTEDMSNLSFLNDASVLHNLRSRYAAMLIYTYSGLFCVVINPYKRLPIYTDSCARMFMGKRKTEMPPHLFAVSDEAYRNMLQDHENQSMLITGESGAGKTENTKKVICYFAAVGASQQEGGAEVDPNKKKVTLEDQIVQTNPVLEAFGNAKTVRNNNSSRFGKFIRIHFNKHGRLASCDIEHYLLEKSRVIRQAPGERCYHIFYQIYSDFRPELKKELLLDLPIKDYWFVAQAELIIDGIDDVEEFQLTDEAFDILNFSAVEKQDCYRLMSAHMHMGNMKFKQRPREEQAEPDGTDEAEKASNMYGIGCEEFLKALTKPRVKVGTEWVSKGQNCEQVNWAVGAMAKGLYSRVFNWLVKKCNLTLDQKGIDRDYFIGVLDIAGFEIFDFNSFEQLWINFVNEKLQQFFNHHMFVLEQEEYAREGIQWVFIDFGLDLQACIELIEKPLGIISMLDEECIVPKATDLTLASKLVDQHLGKHPNFEKPKPPKGKQGEAHFAMRHYAGTVRYNCLNWLEKNKDPLNDTVVSAMKQSKGNDLLVEIWQDYTTQEEAAAKAKEGGGGGKKKGKSGSFMTVSMLYRESLNNLMTMLNKTHPHFIRCIIPNEKKQSGMIDAALVLNQLTCNGVLEGIRICRKGFPNRTLHPDFVQRYAILAAKEAKSDDDKKKCAEAIMSKLVNDGSLSEEMFRIGLTKVFFKAGVLAHLEDIRDEKL
notes: MHC-B muscle myosin (Myo4_Cel), C. elegans, motor domain residues 1-790; the state is told by the assay; also called MHC (1-790); Myo4_Cel; source: High Five insect cells, baculovirus; purified (Ni-NTA, SEC) alone or as a complex with UNC-45; not shown: His6, C-terminal, kept
binding result [1]: binds | binding result [2]: binds

B2
increase of melting temperature (Tm) [3]: 5.5 °C

B3: Myo4 peptide (residues 561–573) (peptide)
peptide: WKFIVSHYAVDVEY
notes: tryptophan introduced at the N-terminus for peptide quantification; also called myosin peptide; core of the myosin motif; source: synthetic peptide (in-house, HPLC purified)
Kd [4]: 0.6 µM
